How the values were obtained:
[1] = target: human ciliary neurotrophic factor receptor (CNTFR) (human); experiment: indirect binding: CNTF-myc, 9E10, FITC-labelled goat anti-mouse antibody, FACS of transfected COS cells
[2] = target: human ciliary neurotrophic factor receptor (CNTFR) (human); experiment: indirect binding on COS cells transfected with clone I1: CNTF-myc, 9E10, 125I goat anti-mouse; hand-held gamma counter
[3] = target: human ciliary neurotrophic factor receptor (CNTFR) (human); experiment: indirect binding on COS cells transfected with clone I2: CNTF-myc, 9E10, 125I goat anti-mouse; hand-held gamma counter
[4] = target: human ciliary neurotrophic factor receptor (CNTFR) (human); experiment: indirect binding on COS cells transfected with clone I4: CNTF-myc, 9E10, 125I goat anti-mouse; hand-held gamma counter
[5] = target: human ciliary neurotrophic factor receptor (CNTFR) (human); experiment: indirect binding on COS cells transfected with clone I5: CNTF-myc, 9E10, 125I goat anti-mouse; hand-held gamma counter
[6] = target: human ciliary neurotrophic factor receptor (CNTFR) (human); experiment: indirect binding on COS cells transfected with clone I6: CNTF-myc, 9E10, 125I goat anti-mouse; hand-held gamma counter
[7] = target: human ciliary neurotrophic factor receptor (CNTFR) (human); experiment: indirect binding on COS cells transfected with clone I7: CNTF-myc, 9E10, 125I goat anti-mouse; hand-held gamma counter
[8] = target: human ciliary neurotrophic factor receptor (CNTFR) (human); experiment: indirect binding on COS cells transfected with clone I8: CNTF-myc, 9E10, 125I goat anti-mouse; hand-held gamma counter
[9] = target: human ciliary neurotrophic factor receptor (CNTFR) (human); experiment: indirect binding on COS cells transfected with clone I9: CNTF-myc, 9E10, 125I goat anti-mouse; hand-held gamma counter
[10] = target: human ciliary neurotrophic factor receptor (CNTFR) (human); experiment: indirect binding on COS cells transfected with clone I10: CNTF-myc, 9E10, 125I goat anti-mouse; hand-held gamma counter
[11] = target: human ciliary neurotrophic factor receptor (CNTFR) (human); experiment: indirect binding on COS cells transfected with clone I11: CNTF-myc, 9E10, 125I goat anti-mouse; hand-held gamma counter
[12] = target: human ciliary neurotrophic factor receptor (CNTFR) (human); experiment: indirect binding on COS cells transfected with clone I12: CNTF-myc, 9E10, 125I goat anti-mouse; hand-held gamma counter
[13] = target: human ciliary neurotrophic factor receptor (CNTFR) (human); experiment: indirect binding on COS cells transfected with clone I13: CNTF-myc, 9E10, 125I goat anti-mouse; hand-held gamma counter
[14] = target: human ciliary neurotrophic factor receptor (CNTFR) (human); experiment: indirect binding on COS cells transfected with clone I14: CNTF-myc, 9E10, 125I goat anti-mouse; hand-held gamma counter
[15] = target: human ciliary neurotrophic factor receptor (CNTFR) (human); experiment: indirect binding on COS cells transfected with clone I15: CNTF-myc, 9E10, 125I goat anti-mouse; hand-held gamma counter

fold increase (FACS, positive against negative clones) [1]: 100 fold
CPM bound [2]: 2000 CPM
CPM bound [3]: 8500 CPM
CPM bound [4]: 9000 CPM
CPM bound [5]: 2000 CPM
CPM bound [6]: 1600 CPM
CPM bound [7]: 6000 CPM
CPM bound [8]: 7500 CPM
CPM bound [9]: 7000 CPM
CPM bound [10]: 4500 CPM
CPM bound [11]: 7000 CPM
CPM bound [12]: 5000 CPM
CPM bound [13]: 8000 CPM
CPM bound [14]: 10000 CPM
CPM bound [15]: 8000 CPM
Substance: CNTF/myc (ligand)

Source: US5849897
